Consider 133 substances from the supplement of paper PMC12042874.

± gives the uncertainty stated by the source.

The nature of the data set: amyloid nucleation score (Sup35N fusion, yeast selection) (log enrichment); library NNK3; higher = more nucleation; inactive = no reads after selection. Summed up:
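Nucleation score: DiMSum log enrichment of output over input reads, centred on the mode score of non-aggregating sequences. Only sequences with at least 100 input reads were kept. Reads came from Illumina sequencing of plasmid inserts before and after 7 days of growth at 30°C without adenine and uracil, in psi-negative yeast expressing Sup35N fused to peptides of 20 random codons after 24 hours of induction with 100 μM copper sulfate.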
Take NRDVLQKPLIIAICQSFCSQ: the amyloid nucleation score was determined as 2.32 ± 0.083.

On to LYDSSYMVDIDSYTLENCRS, for which the amyloid nucleation score entry was “inactive”.

Take FGCCKRCRHNRVSKEFSWSC: the amyloid nucleation score entry is “inactive”.

On to STVTDTYRLDTWTTWETDRG, for which the amyloid nucleation score was 1.98 ± 0.095.

For IIHLNLSNVWYTPSGWYRVC, the amyloid nucleation score was found to be 2.3 ± 0.063.

As for DHHLEEYRL, the amyloid nucleation score entry is “inactive”.

On to EVHLSINEINLYVIEDEGSL, for which the amyloid nucleation score was found to be 0.013 ± 0.32.

Regarding FNDNVVVVSDNVVRRITSKS, the amyloid nucleation score result is “inactive”.

Turning to DFGHVIQSSWNSMNSAQSVA, the amyloid nucleation score entry was “inactive”.

On to PNRNYVCGMSCYGAVVSELR, for which the amyloid nucleation score result was “inactive”.

As to CNMSPKNFSIFSFVPNKPVG, the amyloid nucleation score entry was “inactive”.

Turning to LLMFTFHYSPFS, the amyloid nucleation score is 0.483 ± 0.37.

As to KANFNVSVGKSVHATCLLTL, the amyloid nucleation score result is “inactive”.

As for RCDKIWQASVMGSDIRDL, the amyloid nucleation score entry was “inactive”.

Consider TNTRASMFIFCVHSMSLLFY, for which the amyloid nucleation score entry is “inactive”.

On to INVPLALLSYGV, for which the amyloid nucleation score result is “inactive”.

For the substance MDSLGW, the amyloid nucleation score result is “inactive”.

LSLKNFMSSFSSLWCGWSDD gave an amyloid nucleation score of 0.689 ± 0.29.

Turning to ECLKVRW, the amyloid nucleation score entry is “inactive”.

With VSEFFFP, the amyloid nucleation score result is “inactive”.

Turning to RLIYHRQFFRE, the amyloid nucleation score result was “inactive”.

Regarding VMSGAKPARSLFLSTLQHIS, the amyloid nucleation score entry is “inactive”.

On to TTEEL, for which the amyloid nucleation score result is “inactive”.

In the case of EPITASYMRILNCACVAYCG, the amyloid nucleation score result was “inactive”.

For the substance LLLIWWNLALNLKLFFELKV, the amyloid nucleation score result is “inactive”.

For IWPWYCKHNIFVKYHRLVER, the amyloid nucleation score entry is “inactive”.

Turning to VLKDNF, the amyloid nucleation score entry was “inactive”.

On to SGLDFAYLDECSREGSVYAG, for which the amyloid nucleation score entry was “inactive”.

Turning to NLAFP, the amyloid nucleation score entry is “inactive”.

SLLMYCRNTVSMSNNLSRHR displayed an amyloid nucleation score of 1.39 ± 0.11.

Take ETWEIGRSKMGHRDCFCNYM: the amyloid nucleation score entry was “inactive”.

Consider KRSHY, for which the amyloid nucleation score entry is “inactive”.

Regarding TGLNGLRVLYSMRRPGKV, the amyloid nucleation score entry was “inactive”.

On to NLRSLFKPWPVVPAYMRFME, for which the amyloid nucleation score entry is “inactive”.

As to RTRTCRYFLIVYSVVCLMSI, the amyloid nucleation score entry is “inactive”.

On to WNFIVFGFYLDGRILFISYL, for which the amyloid nucleation score was -0.755 ± 0.7.

Turning to SVGFVHFVNTGDQKYERRVD, the amyloid nucleation score entry was “inactive”.

As to FRITNWLSLYDKTEISHASI, the amyloid nucleation score entry is “inactive”.

CQTGRYRESALSVLARKLNA: the amyloid nucleation score result is “inactive”.

On to RYCGYHGVRFCSVCRFNMSL, for which the amyloid nucleation score entry was “inactive”.

In turn, ADIDLVGVDCPWCGGLESFP returned an amyloid nucleation score of -0.342 ± 1.2.

With MLYVLSYWLLKMPQMLNVNP, the amyloid nucleation score entry is “inactive”.

NIPVSYYVVNGLIAEMLFIS yielded an amyloid nucleation score of 0.409 ± 0.27.

As for GLNMPLSFSPKRRHFVREWK, the amyloid nucleation score entry was “inactive”.

As to AWFVEKLLCDLHSPSAVGAG, the amyloid nucleation score was -0.565 ± 1.5.

Turning to PCKDLQTYWFENWCQRFGR, the amyloid nucleation score entry was “inactive”.

With NAHSHGYGSVPGR, the amyloid nucleation score entry was “inactive”.

Regarding TKHPLYM, the amyloid nucleation score result is “inactive”.

LIFGYPVGKFTMMGLTSMWS: the amyloid nucleation score result was “inactive”.

Turning to YQGYRFNC, the amyloid nucleation score result was “inactive”.

As to EHFRGRVLVRCLL, the amyloid nucleation score entry is “inactive”.

Consider CDVHTGRCDSCYTGNSTKFG, for which the amyloid nucleation score result was “inactive”.

As for SLYRSEVMVHAVVVYVYFGK, the amyloid nucleation score entry is “inactive”.

Regarding GQVYMSVRV, the amyloid nucleation score result is “inactive”.

LNIIVDGLAMDVYDEALGSN: the amyloid nucleation score entry was “inactive”.

For IIPKRLDVR, the amyloid nucleation score was -0.397 ± 0.7.

Take YIALCLRYHTFLMKQEFHVG: the amyloid nucleation score entry is “inactive”.

For the substance ELSACCYAMSWMVDCVRASL, the amyloid nucleation score was 1.34 ± 0.1.

For VPSNLGKPHMCRRSRDYFTA, the amyloid nucleation score result is “inactive”.

Consider LLDIC, for which the amyloid nucleation score entry is “inactive”.

In turn, VNDPEAR displayed an amyloid nucleation score of -0.391 ± 1.2.

With VLRSNHFD, the amyloid nucleation score entry is “inactive”.

Take MVNAWLNRYKMWNVFIALNR: the amyloid nucleation score result was “inactive”.

On to SSIWSGMSLFGFREIMSYVI, for which the amyloid nucleation score result was “inactive”.

For the substance NVGWIWPYM, the amyloid nucleation score entry is “inactive”.

With AGGSVYKIVEFSCLLFNQKY, the amyloid nucleation score entry is “inactive”.

On to VTMFLGQWCSHSIVAMCIEG, for which the amyloid nucleation score result is “inactive”.

Substance GVLRLVISEHDLDETFVFMT had an amyloid nucleation score of 0.189 ± 0.43.

Turning to GGLYKYKNRTRLFMSWRVSR, the amyloid nucleation score entry is “inactive”.

With LICAW, the amyloid nucleation score result is “inactive”.

Consider HRKSGMVIYFTVPWFMKRNC, for which the amyloid nucleation score result is “inactive”.

For KNSTWMSESVNNRFFIQVGA, the amyloid nucleation score entry was “inactive”.

For the substance NNCSRICM, the amyloid nucleation score result is “inactive”.

For RGGTASQVFMCFKLVFRSRY, the amyloid nucleation score is -0.14 ± 0.6.

For SDHLQ, the amyloid nucleation score entry was “inactive”.

With HYTTASFDVDNPLRLLLLLQ, the amyloid nucleation score result is “inactive”.

Turning to KTLIRASWSLSC, the amyloid nucleation score entry is “inactive”.

In turn, LGNIGVELVDRCDRYIYQPD showed an amyloid nucleation score of 0.627 ± 0.2.

As to QCRYRRSST, the amyloid nucleation score result was “inactive”.

On to SGDPSSLEDIGFVIYWRIYI, for which the amyloid nucleation score entry is “inactive”.

YRDFDEDCVIL: the amyloid nucleation score entry is “inactive”.

On to LQNVGD, for which the amyloid nucleation score result is “inactive”.

As to CTNKFVWKFVKFNNLCLLAY, the amyloid nucleation score result was “inactive”.

Regarding KSGTCK, the amyloid nucleation score result was “inactive”.

Take NWVQKRPGQRHFNIASNCV: the amyloid nucleation score result is “inactive”.

Turning to HKRLGPLHYRLICG, the amyloid nucleation score entry was “inactive”.

CSCFYNNRIISSPMLLWLVQ: the amyloid nucleation score entry is “inactive”.

In the case of IFHMVVLVLAGKFILVISCS, the amyloid nucleation score result is “inactive”.

FSYCSLWGKCVCDIFTNGQL returned an amyloid nucleation score of 2.81 ± 0.051.

FDLEMSSGFPTIELWMR: the amyloid nucleation score entry is “inactive”.

WYSCAKMANIHIVSVVTTST: the amyloid nucleation score result was “inactive”.

With YYLFWVAFDMMLRLRFFVMD, the amyloid nucleation score result is “inactive”.

TYYGCYLVGR gave an amyloid nucleation score of 0.01 ± 0.66.

FLVNEEPVQLHGAPVRYFKF returned an amyloid nucleation score of -0.504 ± 1.1.

For GLERLMDPLGNHRVRGDRVG, the amyloid nucleation score result was “inactive”.

As for KRGMSHVSVCFIMRCFLYID, the amyloid nucleation score entry was “inactive”.

As to VAYNRGSQCCR, the amyloid nucleation score result was “inactive”.

In the case of KGTMVQTVKSVWLGEHIVLA, the amyloid nucleation score result is “inactive”.

Turning to CNLVDSYNSKRMVNSTSMPF, the amyloid nucleation score entry is “inactive”.

Consider LQGVFRMSQISG, for which the amyloid nucleation score entry was “inactive”.

For RISSCSYHRVRVHVDTWAHV, the amyloid nucleation score entry was “inactive”.

For GSSGENFVNYSKVTKSDLLY, the amyloid nucleation score entry was “inactive”.

Take LSSLYLCCYACPNMLLI: the amyloid nucleation score was 1.58 ± 0.11.

Regarding RCSDWYHFTAQSS, the amyloid nucleation score entry was “inactive”.

MMSFNVPLNAWVLSEFDTTY: the amyloid nucleation score entry is “inactive”.

As to SGQNKEQVVWMCTVRLPESS, the amyloid nucleation score result was “inactive”.

Turning to QLFMPGSVVTHRSYFTCMWL, the amyloid nucleation score is 1.95 ± 0.064.

KPRVMFMISARVFVNYRICS: the amyloid nucleation score entry is “inactive”.

On to VYQGMYNKSAYC, for which the amyloid nucleation score entry is “inactive”.

FSMWCVSCN: the amyloid nucleation score entry is “inactive”.

In the case of YCETLTRY, the amyloid nucleation score entry is “inactive”.

As for FALSVVQG, the amyloid nucleation score result is “inactive”.

In the case of MPILLCLVHPPLYSSDPFQK, the amyloid nucleation score entry was “inactive”.

Take CVRFPANLSFGSDRKAKLS: the amyloid nucleation score result is “inactive”.

SVWESHVWHAHTQI: the amyloid nucleation score entry was “inactive”.

As to RKRYFWNHAEISILKTSSSW, the amyloid nucleation score entry is “inactive”.

As for ANVARFMYSFVKQALSLWVR, the amyloid nucleation score result was “inactive”.

Consider GVGPVGRF, for which the amyloid nucleation score result is “inactive”.

As for QLAKG, the amyloid nucleation score result is “inactive”.

As to RRNEFVLWYLGDTSWYVWFS, the amyloid nucleation score stood at 0.268 ± 0.27.

With HKASKLVYLQWCRHECWSLV, the amyloid nucleation score entry was “inactive”.

For the substance VKYVNEPVSHSIDWIPSPFP, the amyloid nucleation score amounted to 0.559 ± 0.24.

For RNNVMYVGYEGI, the amyloid nucleation score result is “inactive”.

Turning to EFVVCTQCRVCDLIAFLGRN, the amyloid nucleation score turned out to be 2.84 ± 0.065.

On to IQPCFIGIGVGYSRFVGRFF, for which the amyloid nucleation score was determined as 0.982 ± 0.22.

In the case of VSYCAWSFEG, the amyloid nucleation score entry is “inactive”.

In the case of GMAVVLSLAPAGRKRTTTNV, the amyloid nucleation score result was “inactive”.

Consider HCFVANGFLD, for which the amyloid nucleation score result was “inactive”.

The substance TERVCVCVTFVLW returned an amyloid nucleation score of 1.23 ± 0.16.

On to LSPWVSMILVKFKLHLYLRR, for which the amyloid nucleation score result is “inactive”.

The substance TTCWVYMLVILA gave an amyloid nucleation score of 1.38 ± 0.077.

As to RAPAMGL, the amyloid nucleation score result was “inactive”.

Take NMLVCITSDGLYFYCCGANS: the amyloid nucleation score was 1.5 ± 0.11.
